Each block holds one binder with its values, some of them ahead of it.
How the values were obtained:
[1] = target: T1, extracellular domain of human CD73 protein, C-terminus polyhistidine-tagged (human, UniProt P21589 27-547); assay: ELISA on CD73-ECD, 4 µL supernatant of antibody expression, first of two readings; PBS 0.19, 0.18
T1 construct: also the immunogen; also called CD73-ECD; human CD73-ECD
T1 sequence: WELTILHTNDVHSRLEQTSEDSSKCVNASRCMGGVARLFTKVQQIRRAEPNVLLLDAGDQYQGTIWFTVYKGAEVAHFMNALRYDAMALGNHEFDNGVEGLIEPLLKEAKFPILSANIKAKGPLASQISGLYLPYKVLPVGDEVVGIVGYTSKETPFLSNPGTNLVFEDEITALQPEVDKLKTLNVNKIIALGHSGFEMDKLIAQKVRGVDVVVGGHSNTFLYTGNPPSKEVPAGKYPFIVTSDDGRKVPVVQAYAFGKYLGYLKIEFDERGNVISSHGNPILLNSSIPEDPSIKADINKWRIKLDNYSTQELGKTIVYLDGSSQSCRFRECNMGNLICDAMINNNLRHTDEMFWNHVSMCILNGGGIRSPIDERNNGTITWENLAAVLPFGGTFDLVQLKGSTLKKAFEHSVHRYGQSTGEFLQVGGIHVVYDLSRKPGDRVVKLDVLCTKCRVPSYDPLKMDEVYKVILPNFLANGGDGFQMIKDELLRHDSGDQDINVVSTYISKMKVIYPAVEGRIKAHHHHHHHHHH
Procedure: The CD73 protein extracellular region (CD73-ECD) was diluted to 1 μg/mL using the coating solution, and an ELISA plate was coated at 100 μL/well at 4° C. overnight. Excess antigens were washed away, and the plate was blocked with 1% BSA at room temperature for 2 hours. Then, 5-fold gradient dilutions of each monoclonal antibody were added at 100 μL/well and incubated at room temperature for 1 hour. Unbound antibodies were washed away, and an appropriate concentration of Staphylococcal protein A labeled with horseradish peroxidase was added at 100 μL/well and incubated at room temperature for 0.5 hours. Unbound secondary antibodies were washed away, and TMB color development solution was added to react for about 15 minutes. 1M HCL was added at 50 µL/well to terminate the color development reaction, and then the absorbance was measured at 450 nm and the data was analyzed.
CD73 antigen ELISA binding affinity test was performed according to the method of Example 3.

[2] = target: T2, CD73 on the surface of human cells (human, UniProt P21589 27-549); assay: Flow cytometry on NCI-H1299 cells
T2 construct: whole, on cells; The cell line of each value is named under assay or readout; also called CD73 on the surface of tumor cells; CD73 enzyme on the surface of MDA-MB-231 cells
T2 sequence (looked up): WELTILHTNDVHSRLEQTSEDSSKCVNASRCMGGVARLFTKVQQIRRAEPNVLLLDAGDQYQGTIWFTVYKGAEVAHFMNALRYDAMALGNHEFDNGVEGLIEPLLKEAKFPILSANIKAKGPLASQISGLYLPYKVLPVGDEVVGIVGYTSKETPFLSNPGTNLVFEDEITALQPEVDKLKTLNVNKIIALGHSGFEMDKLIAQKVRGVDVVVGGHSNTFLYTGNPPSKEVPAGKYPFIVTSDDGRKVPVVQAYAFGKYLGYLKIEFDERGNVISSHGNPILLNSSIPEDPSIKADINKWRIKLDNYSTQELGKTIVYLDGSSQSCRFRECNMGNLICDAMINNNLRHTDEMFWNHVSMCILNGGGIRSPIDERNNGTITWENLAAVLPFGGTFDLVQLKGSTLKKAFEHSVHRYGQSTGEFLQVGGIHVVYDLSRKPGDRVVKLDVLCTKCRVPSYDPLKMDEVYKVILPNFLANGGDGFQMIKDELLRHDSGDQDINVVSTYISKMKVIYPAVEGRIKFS
Procedure: 100 μL of the test antibodies diluted from 10 μg/mL to 0.016 μg/mL in a 5-fold gradient were used as the primary antibodies, and were mixed with 1×10⁵ tumor cells suspended in 100 μL RPMI-1640 serum-free medium to make a final concentration of 5 μg/mL diluted to 0.008 μg/mL, and then incubated at 4° C. for 1 h. The cells were washed twice with PBS to remove unbound primary antibodies, and then the target cells were incubated with 200 μLPE-labeled secondary antibody at 2 μg/mL at 4° C. for 30 min. The cells were washed twice with PBS to remove unbound secondary antibodies, and finally the cells were resuspended in 200 μL PBS. The binding affinity of the test antibodies to CD73 on the surface of the corresponding cells was measured by flow cytometry.
The binding affinity of the humanized antibodies to NCI-H1299 cells was detected according to the method for determining the binding affinity of CD73 on the surface of tumor cells in Example 5.

ELISA reading (not named on the sheet) [1]: 4.23
B1: chimeric nanobody 5-E11 (Fc fusion)
VHH: ALQLVESGGGLVQPGGSLRLSCEVSGFTLDYYNIGWFRQAPGKEREGVSCSSNSGGSTYYADSVKGRFTISRDNAKNTVYLQMNSLKPEDTGVYYCAAYRGWHPSLDARVYDYWGQGTEVTVSS
notes: Human-alpaca chimeric antibody (VHH on hIgG1 Fc); Only the VHH is tied to the tested molecule; also called original antibody 5-E11

Max MFI [2]: 105000 MFI
B2: chimeric nanobody 3-D7 (Fc fusion)
VHH: QRQLVESGGGLVQPGGSLRLSCAASGFLLDYYVIGWFRQAPGKEREGVSCISGSDRSTYYADSVKGRFTISRDNAKNTVYLQMNSLKPEDTAVYFCAADPSPVTVQAMCLPRFPVPYWGQGTQVTVST
notes: Human-alpaca chimeric antibody (VHH on hIgG1 Fc); Only the VHH is tied to the tested molecule; 37-39 exist for 3-D7-FC1/FC2/FC3; also called original antibody 3-D7
